Experimental data reported in patent US9487562B2, “Stabilized polypeptides as regulators of RAB GTPase function” (President and Fellows of Harvard College, priority 2011, dated 2016).
Entries after “also recorded” stand apart in the source; their conditions may differ. Bridge positions count the residues as written; N and C are the ends. Square brackets hold non-standard residues; d marks the D form. Ends that are not written are not given here. * marks the point of attachment. FITC = O=C1OC2(c3ccc(O)cc3Oc3cc(O)ccc32)c2ccc(NC(=S)*)cc21; Met(O) = CS(=O)CC[C@H](N)C(=O)O; S5 = C=CCCC[C@](C)(N)C(=O)O

How the values were obtained:
RAB25 [1] = target: T1, RAB25 (Homo sapiens, UniProt P57735); experiment: Fluorescence polarization binding of FITC-FIP/FITC-RFP peptides to RAB25; conditions: FITC peptide 15 nM
T1 construct: RAB25 (residues E7-Q180) was expressed with an N-terminal GST- and hexahistidine tag; made in house; host or cells: Escherichia coli BL21(DE3) pLysS
T1 sequence (P57735 7-180): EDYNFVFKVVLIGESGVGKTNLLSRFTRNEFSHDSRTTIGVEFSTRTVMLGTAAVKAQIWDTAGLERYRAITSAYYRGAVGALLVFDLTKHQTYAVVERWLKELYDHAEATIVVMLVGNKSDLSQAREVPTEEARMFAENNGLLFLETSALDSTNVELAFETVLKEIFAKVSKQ
Experimental: (§1) RAB11/25 protein binding assays were performed by incubating FITC-FIP or FITC-RFP (stapled FIP derivatives) peptides (15 nM) with three-fold dilutions of recombinantly-expressed, purified RAB11, RAB25 or a various epitope-tagged version of either in protein-binding buffer (25 mM Tris-HCl, pH 8.0, 150 mM NaCl, 1 mM EDTA, 1 mM DTT, 10 mM MgCl2, 10 mM GTP). Dilutions and incubations were made in 384-well, black flat-bottom plates (Corning) to a total volume of 40 μL and equilibrated for 60 minutes. Polarization was measured on a Spectramax-M5 multi-label plate reader with λex=485 nm and λem=525 nm. Polarization was calculated according to the standard equation: P=(V−H)/(V+H), where P=polarization, V=vertical emission intensity and H=horizontal emission intensity. Kd values were determined by fitting data to a variable-slope sigmoidal binding curve using Prizm 4 graphing software.
(§2) RAB11 and RAB25 proteins were expressed and purified in Escherichia coli strain BL21(DE3) pLysS (Stratagene) as epitope-tagged fusion proteins in various vectors (Novagen). RAB25 (residues E7-Q180) was expressed with an N-terminal GST- and hexahistidine tag with internal thrombin and TEV cleavage sites (GST-H6-RAB25) (SEQ ID NO: 86) in a pET41-1 vector (Novagen) or with an N-terminal hexahistidine tag alone with an internal thrombin cleavage site (H6-RAB25) (SEQ ID NO: 86) in a pET28 vector (Novagen). FIP3 protein (residues 649-756) was expressed with an N-terminal GST-tag with an internal TEV cleavage site (GST-FIP3) in a pGEX6p-1 vector (Novagen). RAB11 (residues 1-175) was expressed with an N-terminal GST-tag with an internal thrombin cleavage site in a pGEX5x-1 vector (Novagen). Transformed bacteria was grown at 37° C. until an OD600=0.8 was reached, at which point the culture was induced with 0.5 mM isopropyl β-D-1-thiogalactopyranoside (IPTG). Induced cells were grown at 30° C. for 6 hours, pelleted and lysed in binding buffer (25 mM Tris-HC;, pH 8.0, 150 mM NaCl, 1 mM EDTA, 1 mM DTT, 10 mM MgCl2, 10 mM GTP) supplemented with a complete protease inhibitor tablet (Roche) by sonication on ice. The lysate was centrifuged at 14,000 rpm to clear insoluble matter prior to loading onto Ni-NTA resin (Qiagen) for hexahistdine-tagged constructs or on GST-bind agarose resin (Biorad) for GST-tagged constructs. The protein-bound bead slurry was washed 4× with ˜20 mL of buffer and retained protein was eluted with either 250 mM imidazole or 20 mM glutathione in buffer for H6-(SEQ ID NO: 86) or GST-proteins, respectively. The eluent was concentrated using a 30 kD exclusion filter and purified by size-exclusion chromatography on a Superdex-75 Column (Amersham Pharmacia Biotech). Fractions containing purified protein were pooled, concentrated and dialyzed into binding buffer or other similar buffer for specific biochemical assays.

RAB11 [2] = target: T2, RAB11 (Homo sapiens, UniProt P62491); experiment: Fluorescence polarization binding of FITC-FIP/FITC-RFP peptides to RAB11; conditions: for binding affinity to RAB11: FITC peptide 15 nM, fluorescence polarization; for binding to RAB11: in the presence and absence of GTP, FITC peptide
T2 construct: RAB11 (residues 1-175) was expressed with an N-terminal GST-tag with an internal thrombin cleavage site; GST (thrombin cleavage site between tag and RAB11) (N); made in house; host or cells: Escherichia coli BL21(DE3) pLysS
T2 sequence (P62491 1-175): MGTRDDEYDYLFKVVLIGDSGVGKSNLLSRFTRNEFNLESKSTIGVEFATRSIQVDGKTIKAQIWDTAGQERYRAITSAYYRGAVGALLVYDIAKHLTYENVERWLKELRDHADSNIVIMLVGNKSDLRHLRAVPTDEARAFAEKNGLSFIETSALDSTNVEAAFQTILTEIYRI
Experimental: Fluorescence polarization (FP) was used to measure FIP peptide binding to RAB11 and RAB25 proteins. […] This indicated specificity in the binding measurement, as this subtle change would be expected to perturb binding.
as §1, §2

RAB25 [3] = target: RAB25 (UniProt P57735); experiment: ALPHAscreen competition
GST-H6-RAB25 = GST-H6-RAB25 (UniProt P57735); experiment: AlphaScreen competition
[4] = Circular dichroism spectra / percent helicity; format: physicochemical; conditions: 20° C. in water, peptides at 50 μM
Experimental: We next investigated the structural stability of the RFPs by obtaining circular dichroism (CD) spectra for each peptide. All measurements were made at 20° C. in water with peptides at 50 μM. […] By comparison, stapled FIP peptides (RFPs) show helical CD spectra indicated by minima at approximately 208 and 222 nm (FIG. 11B).
A circular dichroism spectrometer (Jasco J-710, Japan) was used to determine the α-helical content of all peptides. Peptides were dissolved in water to a final concentration of 50 μM in a quartz cuvette with a path length of 1 cm. Absorbance values were taken at 1 nm intervals between 190 and 260 nm for buffer alone and for peptide solutions. The background (buffer) spectrum was subtracted from experimental spectra, which were subsequently subjected to baseline-normalization and curve-smoothing within the spectrometer software. Percent-helicity was calculated from the absorbance at 222 nm using helical models as previously reported in Chen Y H et al., Biochemistry, 13, 3350-9 (1974).

RAB25 [5] = experiment: Fluorescence polarization binding of FITC-FIP/FITC-RFP peptides to RAB25
Experimental: as §1, §2

[6] = Peptide thermal stability by CD at 222 nm; format: physicochemical; conditions: CD at 222 nm over 10-90° C.
Experimental: Peptide thermal stability was measured by scanning the peptide CD at 222 nm over a temperature range (10-90° C.). A sigmoidal unfolding curve was apparent for helices of unmodified FIP peptides (FIP4) with a Tm of ˜34° C. (FIG. 12A).
Peptide thermal stability experiments were performed in a similar manner to circular dichroism experiments in Example 5. Peptide solutions were cooled to 10° C. in a temperature controlled CD-chamber and circular dichroism absorbance at 222 nm was measured at 1 degree intervals while the solution was heated to 90° C. 222 nm CD values were plotted as a function of temperature and fitted to a sigmoidal denaturation curve, with the half-maximal temperature representing the Tm.

RAB11 [7] = target: RAB11 (UniProt P62491); experiment: fluorescence polarization
RAB25 [8] = target: RAB25 (UniProt P57735); experiment: fluorescence polarization
RAB25 [9] = target: T3, RAB25 (UniProt P57735 7-180); experiment: fluorescence polarization (FIG. 19B, RAB25); reference peptide not named
T3 construct: range 7-180; Target of the fluorescence polarization assays; also called H6-RAB25
T3 sequence (looked up): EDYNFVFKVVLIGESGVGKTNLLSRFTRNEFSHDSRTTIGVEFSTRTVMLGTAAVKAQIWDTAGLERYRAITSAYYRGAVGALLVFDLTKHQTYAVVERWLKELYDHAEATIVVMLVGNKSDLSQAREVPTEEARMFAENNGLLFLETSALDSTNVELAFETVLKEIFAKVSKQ
Experimental: as §1, with “MgCl_2,” for “MgCl2,”, “µL” for “μL”, “$\lambdaex$=485” for “λex=485”, “$\lambdaem$=525” for “λem=525”, “K_d” for “Kd”

GST-RAB11 = GST-RAB11 (UniProt P62491); experiment: … titration (hook effect), approximately 10 nM GST-RAB11

Molecule: FIP1: unmodified RAB family interacting protein 1 (class I) peptide (KKEFQVRELEDYIDNLLVRVMEETPNILRIPA) [reference compound]
- binding affinity to RAB25 (RAB25 [1]): little or no binding
- binding affinity to RAB11 (RAB11 [2]): little or no binding

Molecule: FIP2: unmodified RAB family interacting protein 2 peptide (ERDTHIRELEDYIDNLLVRVMEETPSILRVPY) [reference compound]
- binding affinity to RAB25 (RAB25 [1]): little or no binding
- binding affinity to RAB11 (RAB11 [2]): little or no binding

Molecule: FIP3 protein (from UniProt O75154 649-756)
- IC50 (RAB25 [3]): 10.1 µM
- IC50 (GST-H6-RAB25): 10 µM

Molecule: FIP3(726-56)
- IC50 (RAB25 [3]): 14.1 µM

Molecule: FIP4: wild-type unmodified FIP4 peptide (EQEEINFRLRQYMDKIILAILDHNPSILEIKH) [reference compound]
- CD curve shape / secondary structure [4]: partially unfolded/helical structure
- binding affinity to RAB25 (RAB25 [1]): micromolar
- relative affinity RAB11 versus RAB25 (selectivity) (RAB25 [5]): tighter binding to RAB11 than RAB25
- Tm [6]: ~34 °C
- binding affinity to RAB11 (RAB11 [2]): micromolar

Molecule: FITC-RFP1-Ox: chemical derivative of FITC-RFP1 containing an oxidized methionine at a critical hydrophobic interaction site with RAB11 ({FITC}-KQEEINFRLQDYIDRIIVAI[Met(O)]ETNPSILEVK)
- binding to RAB11 (RAB11 [2]): decreased binding; also recorded: dose-dependent binding

Molecule: FITC-RFP1: unmodified FIP3 peptide conjugated to FITC ({FITC}-KQEEINFRLQDYIDRIIVAIMETNPSILEVK)
- binding to RAB11 (RAB11 [2]): dose-dependent binding

Molecule: RFP17: stapled FIP peptide of second design set, SEQ ID NO: 78 (FIG. 7, top to bottom) (RINFRLQN[S5]IDR[S5]IVRIFETNPSILEVK; staple 9-13; not fully specified (C-terminus))
- Tm [6]: 54 °C
- bias for RAB11 versus RAB25 (RAB11 [2]; ratio of affinities RAB11 vs RAB25): equivalent affinity

Molecule: RFP24: stapled FIP peptide containing an E-R mutation to increase overall charge, SEQ ID NO: 82 (RINFRLQN[S5]IDR[S5]IVRIFETNPSILRVK; staple 9-13; not fully specified (C-terminus))
- binding affinity to RAB25 (RAB25 [1]): retained binding affinity

Molecule: RFP31: triple-alanine mutant negative control, SEQ ID NO: 84 (RINFRLQNXIDRXAARIAETNPSILEVK; not fully specified; hydrocarbon staple)
- binding affinity to RAB25 (RAB25 [1]): negligible affinity
- binding affinity to RAB11 (RAB11 [2]): negligible affinity

Molecule: unmodified FIP3 peptide
- Kd (RAB11 [7]): 1.7 µM
- Kd (RAB25 [8]): > 5 µM

B1: RFP31 (peptide)
peptide: RINFRLQN[S5]IDR[S5]AARIAETNPSILEVK
modifications: staple 9-13; also: N-terminal cap differs by assay: FITC or diethyleneglycol-biotin
notes: Negative control in which the I/V/M contact residues are changed to alanine; also called triple-alanine mutant negative control
- fold decrease in binding affinity (RAB25 [9]): ~100 fold

B2: unmodified FIP2 peptide (peptide)
peptide: ERDTHIRELEDYIDNLLVRVMEETPSILRVPY
modifications: also: N-terminal FITC (FP) or biotin (ALPHASCREEN)
- concentration of biotinylated peptide at maximum signal (GST-RAB11): 40 nM
